Substrate: Nc1ccccc1C(=O)CC(N)C(=O)O
Test: purified protein, by the assay type
Settings: other: human KMO, 200 μM NADPH

B1: human KMO (Homo sapiens) (protein)
chain: MDSSVIQRKKVAVIGGGLVGSLQACFLAKRNFQIDVYEAREDTRVATFTRGRSINLALSHRGRQALKAVGLEDQIVSQGIPMRARMIHSLSGKKSAIPYGTKSQYILSVSRENLNKDLLTAAEKYPNVKMHFNHRLLKCNPEEGMITVLGSDKVPKDVTCDLIVGCDGAYSTVRSHLMKKPRFDYSQQYIPHGYMELTIPPKNGDYAMEPNYLHIWPRNTFMMIALPNMNKSFTCTLFMPFEEFEKLLTSNDVVDFFQKYFPDAIPLIGEKLLVQDFFLLPAQPMISVKCSSFHFKSHCVLLGDAAHAIVPFFGQGMNAGFEDCLVFDELMDKFSNDLSLCLPVFSRLRIPDDHAISDLSMYNYIEMRAHVNSSWFIFQKNMERFLHAIMPSTFIPLYTMVTFSRIRYHEAVQRWHWQKKVINKGLFFLGSLIAISSTYLLIHYMSPRSFLRLRRPWNWIAHFRNTTCFPAKAVDSLEQISNLISR
In the case of B1, the Km is reported as 2 µM and the kcat is reported as 0.24 s⁻¹.
